Results from patent US20220233667A1 (OXFORD UNIVERSITY INNOVATION, published 2022).
Residue numbers refer to the chain shown, from its start.

B1: R5.010 (antibody, V domains shown)
VH: EVQLVESGGGLVQPGGSLRLSCAASGFTFSSYWMSWVRQAPGKGLEWVANIKQDGSEKYYVDSVKGRFTISGDNAKNSLYLQMNSLRAEDTAVYYCARGASGYYYYNYGMDVWGQGTRVTVSS
VL: QPVLTQPPSVSVAPGQTARITCGGNNIGIKSVHWYQQKPGQAPVLVVYDDSDRPSGIPERFSGSNSANTATLTISRVEAGDEADYFCQVWDSSSDHPGVFGGGTKLTVLG
notes: also called mAb10
B2: R5.016 (antibody, V domains shown)
VH: QVQLVQSGAEVKKPGASVRVSCKASGYTFTSYGISWVRQAPGQGLEWMGWISGYDGNTNYAQKLQGRVTMTTDTSTSTAYMELRSLRSDDTAVYYCARDGPQVGDFDWQVYYYYGMDVWGQGTTVTVSS
VL: AIRMTQSPSTLSASVGDRVTITCRASQSINTWLAWYQQKPGKAPNLLISKASSLESGVPSRFSGSGSGTEFTLTISSLQPDDFATYFCQQYNSYLYTFGQGTKVEIRR
notes: also called mAb16
B3: R5.011 (antibody, V domains shown)
VH: EVQLVQSGSDLKKPGASVKVSCKASGYTFTSYAMNWVRQAPGQGLEWVGWINTNTGNPTYAQGFTGRFVFSLDTSVSTAYLQISSLKAEDTAVYYCARESPNYYDSSGYYSGYYFDYWGQGTLVTVSS
VL: SYELTQPPSVSVAPGQTATITCGGKNIGSKSVHWYQQKPGQAPVLVVYDDSDRPSGIPERFSGSNSGNTATLTISRVEAGDEADYYCQVWDSSSDHRVFGGGTKLTVLG
notes: also called mAb11
B4: R5.014 (antibody, V domains shown)
VH: EVQLVESGGGLVQPGRSLRLSCAASGFTFDDYAMHWVRQAPGKGLEWVSGISWNSASMDYADSVKGRFTISRDNAKNSLYLQMNSLRAEDTALYYCAKDPAPPYCGGDCYPSFDYWGQGTLVTVSS
VL: B3 VL with V10M, Q16K, T19R, K25N, V47I, D49Y, S94R, R97V
notes: also called mAb14

Target: T1, PfRH5Nt: amino acids F25-K140 of PfRH5 (3D7) with C-terminal CD4d3+4, biotin acceptor peptide and His6 tags (Plasmodium falciparum (3D7))
T1 construct: also called recombinant PfRH5Nt
T1 chain: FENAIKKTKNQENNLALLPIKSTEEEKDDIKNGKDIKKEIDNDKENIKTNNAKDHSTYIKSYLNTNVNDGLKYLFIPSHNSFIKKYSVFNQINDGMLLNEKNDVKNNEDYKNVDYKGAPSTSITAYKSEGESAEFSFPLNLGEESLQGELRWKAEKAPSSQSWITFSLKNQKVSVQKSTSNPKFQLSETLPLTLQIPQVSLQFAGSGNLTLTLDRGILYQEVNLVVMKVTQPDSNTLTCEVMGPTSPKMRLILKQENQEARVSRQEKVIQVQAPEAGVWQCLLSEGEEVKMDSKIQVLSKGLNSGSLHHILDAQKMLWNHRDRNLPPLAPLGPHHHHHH
Assay: ELISA on coated PfRH5Nt

Row | Binder | binding result
1 | B1 | no binding (tested: 1000 ng/mL mAb)
2 | B2 | no binding (tested: 1000 ng/mL mAb)
3 | B3 | no binding (tested: 1000 ng/mL mAb)
4 | B4 | no binding (tested: 1000 ng/mL mAb)
